# B1: HA-tagged Arl6IP5 (ADP ribosylation factor-like GTPase 6-interacting protein 5) (natural protein, human, UniProt O75915 1-188, looked up)
# chain: MDVNIAPLRAWDDFFPGSDRFARPDFRDISKWNNRVVSNLLYYQTNYLVVAAMMISIVGFLSPFNMILGGIVVVLVFTGFVWAAHNKDVLRRMKKRYPTTFVMVVMLASYFLISMFGGVMVFVFGITFPLLLMFIHASLRLRNLKNKLENKMEGIGLKRTPMGIVLDALEQQEEGINRLTDYISKVKE
# notes: Arl6IP5, human, cDNA in pCMV vector with N-terminal HA tag; ER membrane protein; tested in the membrane fraction, not solubilised; also called HA-Arl6IP5; PRAF3; source: COS-7, transfected (PEI), crude membrane fraction; not shown: HA, N-terminal, kept
# Target: the molecule itself
# Assay: SDS-PAGE and immunoblot without cross-linker (SDS-resistant dimer); same membrane fraction of COS-7 cells transfected with HA-Arl6IP5, without BS3; anti-HA immunoblot
protein,measurement,value
B1,stoichiometry N,2
